The results in this text go back to patent publication US20170043011A1.

The assay addresses human CD81 on Hep3B hepatoma cells (human) (UniProt P60033). As to the kind of experiment: cell-based or functional assay.
Chain of UniProt P60033 (P60033 whole entry): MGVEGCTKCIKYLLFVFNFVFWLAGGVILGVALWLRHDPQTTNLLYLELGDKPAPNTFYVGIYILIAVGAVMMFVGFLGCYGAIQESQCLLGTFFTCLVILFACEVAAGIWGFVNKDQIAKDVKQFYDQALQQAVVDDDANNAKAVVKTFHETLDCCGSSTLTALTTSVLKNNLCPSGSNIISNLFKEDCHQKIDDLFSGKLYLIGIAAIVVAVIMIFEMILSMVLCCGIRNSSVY

In the case of “mouse anti-human CD81 monoclonal antibody, clone 1.3.3.22 (Santa Cruz Biotechnology)”, the fold decrease in infectivity of Bole1a HCVpp on Hep3B cells (luciferase RLU) is 10 fold.
